EC50 and Kd data for 11 molecules are collected here from patent US20240026037A1 (Memorial Sloan Kettering, published 2024).

Sequences and labels used below:
T1: Human GPA33 on GPA33+ colorectal cancer cell lines (Colo 205, LS 174T, SW 1222) (human, UniProt Q99795 22-319)
T1 construct: Endogenous GPA33 on human colorectal cancer cell lines; also called surface human GPA33; GPA33+ tumor cell lines
T1 sequence: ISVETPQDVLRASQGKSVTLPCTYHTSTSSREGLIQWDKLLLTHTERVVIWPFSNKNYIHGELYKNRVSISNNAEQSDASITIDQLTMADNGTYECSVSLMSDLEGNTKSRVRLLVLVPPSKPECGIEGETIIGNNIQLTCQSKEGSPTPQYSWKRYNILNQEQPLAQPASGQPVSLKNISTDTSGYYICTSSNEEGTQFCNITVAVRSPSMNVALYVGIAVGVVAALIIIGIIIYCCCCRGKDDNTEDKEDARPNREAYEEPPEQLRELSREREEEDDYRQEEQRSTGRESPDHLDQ

T2: Human GPA33 (recombinant protein, Novoprotein) (human, UniProt Q99795 22-235)
T2 construct: Bought recombinant protein immobilized on a CM5 chip; also called GPA33 antigen; tumor antigen GPA33
T2 sequence: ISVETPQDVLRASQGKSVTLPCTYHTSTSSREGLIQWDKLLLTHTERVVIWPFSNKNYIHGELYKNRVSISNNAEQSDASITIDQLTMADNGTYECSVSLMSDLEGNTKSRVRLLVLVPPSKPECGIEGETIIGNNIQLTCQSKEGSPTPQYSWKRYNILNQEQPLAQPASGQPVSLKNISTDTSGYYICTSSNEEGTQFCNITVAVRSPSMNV

B1: G3A_chimeric (antibody, V domains shown)
VH: EVKLVESGGGLVKPGGSLKLSCAASGFAFSTYDMSWVRQTPEKRLEWVATISSGGSYTYYLDSVKGRFTISRDSARNTLYLQMSSLRSEDTALYYCAPTTVVPFAYWGQGTLVTVSA
VL: DIVMTQSQKFMSTSVGDRVSITCKASQNVRTVVAWYQQKPGQSPKTLIYLASNRHTGVPDRFTGSGSGTDFTLTISNVQSEDLADYFCLQHWSYPLTFGSGTKLEVK
B2: G3A_VK3+VH1 (antibody, IgG1, V domains shown)
VH: EVQLVESGGGLVKPGGSLRLSCAASGFAFSTYDMSWVRQAPGKGLEWVSTISSGGSYTYYADSVKGRFTISRDNAKNSLYLQMNSLRAEDTAVYYCAPTTVVPFAYWGQGTLVTVSA
VL: DIQMTQSPSSLSTSVGDRVTITCKASQNVRTVVAWYQQKPGKAPKTLIYLASNRHSGVPSRFSGSGSGTEFTLTISNLQPEDFATYYCLQHWSYPLTFGSGTKLEVK
B3: G3A_VK7+VH1 (antibody, V domains shown)
VH: B2 VH
VL: B2 VL with T13A, T46R, S56T, L78V
B4: G3A_VK5+VH1 (antibody, V domains shown)
VH: B2 VH
VL: B2 VL with T13A, S56T
B5: G3A_VK5+VH3 (antibody, V domains shown)
VH: B2 VH with S49A, N74S
VL: B2 VL with T13A, S56T
B6: G3A_VK7+VH3 (antibody, V domains shown)
VH: B2 VH with S49A, N74S
VL: B2 VL with T13A, T46R, S56T, L78V
B7: G3A_VK6+VH3 (antibody, V domains shown)
VH: B2 VH with S49A, N74S
VL: B2 VL with T13A, T46R, S56T, Y87F
B8: G3A_VK6+VH1 (antibody, V domains shown)
VH: B2 VH
VL: B2 VL with T13A, T46R, S56T, Y87F
B9: G3A_VK3+VH3 (antibody, IgG1, V domains shown)
VH: B2 VH with S49A, N74S
VL: B2 VL
B10: G3A_VK4+VH3 (antibody, IgG1, V domains shown)
VH: B2 VH with S49A, N74S
VL: B2 VL with T13A, S56T
B11: G3A_VK6+VH2 (antibody, V domains shown)
VH: B2 VH with S49A, A61L, N74S
VL: B2 VL with T13A, T46R, S56T, Y87F

Changes are numbered by the printed parent chain.

Broadly, the EC50 is the concentration that produces a half-maximal response. A lower EC50 goes with a more potent agent. For orientation: Kd means the equilibrium constant for the complex coming apart.

The first test addresses T1, Human GPA33 on GPA33+ colorectal cancer …. The test is described as follows: cell binding to LS174T Luc cells; IgG format.
B1: the EC50 came to 0.248 µg/mL.

B2 had an EC50 of 0.642 µg/mL.

B3 registered an EC50 of 0.481 µg/mL.

B4 had an EC50 of 0.44 µg/mL.

In the case of B5, the EC50 is 0.424 µg/mL.

In turn, B6 gave an EC50 of 0.768 µg/mL.

Consider B7, for which the EC50 turned out to be 0.847 µg/mL.

For B8, the half-maximal effective concentration (EC50) came to 0.402 µg/mL.

Take B9: the EC50 was found to be 0.398 µg/mL.

Molecule B10 returned an EC50 of 0.279 µg/mL.

A further test has as its target T2, Human GPA33 (recombinant protein, …). The test can be described thus: SPR (Biacore), binding to GPA33 protein; IgG format. As to the method:
SPR analysis. Human GPA33 (Novoprotein, Summit, NJ) was immobilized on CM5 chips. Five concentrations of 2-fold serially diluted huA33 IgG1 or huA33-BsAbs (starting at 20 nM) were flowed over the chip using a Biacore™ T100 system (GE Healthcare, Chicago, IL). Binding kinetics of huA33 were measured at 25° C. and binding kinetics of huA33-BsAbs were measured at both 25° C. and 37° C. The sensorgrams were fitted with two state binding model for both to derive kinetic parameters.
Consider B1, for which the dissociation constant Kd stood at 196 pM.

For the molecule B11, the Kd is 1740 pM.

For B2, the Kd stood at 190 pM.

Consider B3, for which the Kd turned out to be 888 pM.

Consider B4, for which the Kd was 171 pM.

In the case of B5, the Kd was 238 pM.

Regarding B6, the Kd was 1620 pM.

With B7, the Kd was found to be 1450 pM.

In the case of B8, the Kd amounted to 884 pM.

Take B9: the Kd was determined as 241 pM.

For the molecule B10, the Kd worked out at 236 pM.

In the next test the target is T1, Human GPA33 on GPA33+ colorectal cancer …. The test is described as follows: cell binding to SW1222 Luc cells; IgG format.
In turn, B1 registered an EC50 of 1 µg/mL.

B11 yielded an EC50 of 1.07 µg/mL.

On to B2, for which the EC50 was determined as 0.338 µg/mL.

As for B3, the EC50 stood at 1.14 µg/mL.

As to B4, it took 0.496 µg/mL to reach a half-maximal effect (EC50).

As for B5, the EC50 is 0.387 µg/mL.

In turn, B7 displayed an EC50 of 0.614 µg/mL.

For B8, the EC50 was determined as 0.831 µg/mL.

Regarding B9, a half-maximal effect (EC50) was put at 0.391 µg/mL.

As for B10, the EC50 turned out to be 1.03 µg/mL.
